Kd data for two substances are collected here from publication PMC8741920.

In experiment [1] the target is recombinant soluble human FcRn with β2-microglobulin (sFcRn) (human) (UniProt P55899). Description: SPR; pH 6.0.
The target is the same in experiment [2]. Description: SPR; pH 7.4.

Chain of UniProt P55899 (P55899 24-297, chain 1 of 2): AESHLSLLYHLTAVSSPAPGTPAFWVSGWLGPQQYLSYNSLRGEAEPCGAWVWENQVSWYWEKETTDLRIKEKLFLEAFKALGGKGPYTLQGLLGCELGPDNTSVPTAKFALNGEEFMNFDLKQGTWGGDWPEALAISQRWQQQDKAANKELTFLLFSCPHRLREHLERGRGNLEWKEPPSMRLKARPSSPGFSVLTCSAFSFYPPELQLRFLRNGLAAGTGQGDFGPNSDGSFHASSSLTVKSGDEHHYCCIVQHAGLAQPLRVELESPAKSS
Chain of UniProt P55899 (partner, as listed by the source, chain 2 of 2): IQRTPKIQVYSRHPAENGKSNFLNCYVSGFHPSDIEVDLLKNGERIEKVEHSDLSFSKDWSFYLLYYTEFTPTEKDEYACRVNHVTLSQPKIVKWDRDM

For “anti-biotin IgG1-MST-HN (from UniProt P01857)”, the equilibrium dissociation constant (Kd) in experiment [1] was 8 nM; in experiment [2], 893 nM. On to “anti-biotin IgG1-WT (from UniProt P01857)”, for which the Kd in experiment [1] stood at 59.3 nM.
